Assay results from patent US20210032664, “ENGINEERED MEGANUCLEASES WITH RECOGNITION SEQUENCES FOUND IN THE HUMAN BETA-2 MICROGLOBULIN GENE” (Precision Biosciences, Inc., published 2021).
Residue numbers refer to the chain shown, from its start. Numbers in names are those of the source.

Key:
Assay in all cases: cell_activity; human T cells, 1 ug mRNA, day 3
Conditions in all cases: tags: N-terminal SV40 NLS
B2M 13-14x.286 = target: T1, B2M 13-14x.286 (Artificial Sequence)
T1 chain: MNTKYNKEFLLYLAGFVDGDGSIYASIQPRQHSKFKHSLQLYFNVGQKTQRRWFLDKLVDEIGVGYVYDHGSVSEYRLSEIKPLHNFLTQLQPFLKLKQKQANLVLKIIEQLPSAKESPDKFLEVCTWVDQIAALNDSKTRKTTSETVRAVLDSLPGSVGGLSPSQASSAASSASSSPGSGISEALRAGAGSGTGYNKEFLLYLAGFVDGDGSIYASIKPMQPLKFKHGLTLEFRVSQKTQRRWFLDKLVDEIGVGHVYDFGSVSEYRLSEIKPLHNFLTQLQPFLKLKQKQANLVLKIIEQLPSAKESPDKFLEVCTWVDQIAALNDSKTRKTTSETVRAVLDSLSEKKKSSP
Procedure: (§1) Donor human T cells were stimulated with anti-CD3 and anti-CD28 antibodies for 3 days, then electroporated with mRNA encoding a given B2M 13-14 meganuclease (1 μg) using the Amaxa 4D-Nucleofector (Lonza) according to the manufacturer's instructions. To look for the loss of B2M surface expression, cells were stained with an antibody recognizing β-2 microglobulin (BD Biosciences) as well as an antibody recognizing CD3 (BioLegend), a marker of T cells.

B2M 13-14x.285 = target: T2, B2M 13-14x.285 (Artificial Sequence)
T2 chain: T1 chain with S217C, M221S, P223A, G229Y, T231V, S237F, F261N, E266D
Procedure: as §1

B2M 13-14x.377 = target: T3, B2M 13-14x.377 (Artificial Sequence)
T3 chain: T1 chain with H32A, S33A, S38T, S217V, M221N, P223A, G229T, T231S
Procedure: as §1

B2M 13-14x.556 = target: T4, B2M 13-14x.556 (Artificial Sequence)
T4 chain: T1 chain with H32R, S217G, M221R, P223S, S237A
Procedure: as §1

B2M 13-14x.338 = target: T5, B2M 13-14x.338 (Artificial Sequence)
T5 chain: T1 chain with M221R, P223D, G229C, T231F, F261T, E266D
Procedure: as §1

B2M 13-14x.456 = target: T6, B2M 13-14x.456 (Artificial Sequence)
T6 chain: T1 chain with H32A, S33A, S38T, S217V, M221Q, P223H, G229Q, T231F, F261S
Procedure: as §1

B2M 13-14x.457 = target: T7, B2M 13-14x.457 (Artificial Sequence)
T7 chain: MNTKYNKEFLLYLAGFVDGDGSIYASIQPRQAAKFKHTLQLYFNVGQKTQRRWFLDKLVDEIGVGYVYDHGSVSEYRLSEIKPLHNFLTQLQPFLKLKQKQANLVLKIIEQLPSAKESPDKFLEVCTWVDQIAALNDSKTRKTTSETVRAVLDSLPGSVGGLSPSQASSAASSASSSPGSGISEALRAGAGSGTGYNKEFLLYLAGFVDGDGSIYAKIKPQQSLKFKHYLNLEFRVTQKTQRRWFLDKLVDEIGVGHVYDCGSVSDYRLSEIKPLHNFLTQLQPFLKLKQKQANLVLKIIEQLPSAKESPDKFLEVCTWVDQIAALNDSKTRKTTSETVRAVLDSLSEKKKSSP
Procedure: as §1

B1: B2M 13-14 recognition sequence (dsDNA)
DNA 1: CTATCTCTTGTACTACACTGAA
DNA 2: TTCAGTGTAGTACAAGAGATAG
activity (B2M 13-14x.286): 44.6 % B2M-negative
activity (B2M 13-14x.285): 22 % B2M-negative
activity (B2M 13-14x.377): 75.9 % B2M-negative
activity (B2M 13-14x.556): 11.8 % B2M-negative
activity (B2M 13-14x.338): 4.68 % B2M-negative
activity (B2M 13-14x.456): 15.7 % B2M-negative
activity (B2M 13-14x.457): 19.7 % B2M-negative
